Test results from the supplement of paper PMC6755084.

B1: F1*; the commonest letter at each place (parent)
chain: GAGACCGCAACTGAAAAGTTGTTATCACTTGTCGTAAGACACTTTGGATGGGTTGAAGTTCTGCACGTAGAAGCAAAAGGC

Variants of: B1
Experiment: fraction ligated after 30 min (ligated reads / total reads); higher = more ligase activity
Details: with F1*sub RNA substrate (template-directed ligation), 42 °C
Protocol: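 Chip-synthesised pool of F1* ligase ribozyme variants (all single and double substitutions, single, double and triple deletions in the catalytic core and GAA bulge, plus designed variants) was transcribed with T7 and reacted as a pool with excess substrate F1*sub for 30 min at 42 C in 50 mM EPPS pH 8.5, 25 mM MgCl2. Ligated and unligated bands were separated by PAGE, barcoded by RT and deep sequenced; fraction ligated = ligated reads / total reads per variant, relative activity = FL / FL of wild type (0.826). Sequences are the DNA template of the ribozyme.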

Variant	fraction ligated
GAGACCGCAACTGAAAAGTTGTTATGACTTGTCCTAAGACACTTTGGATGGGTTGAAGTTCTGCACGTAGAAGCAAAAGGC [C26G G34C]	0.371
GAGACCGCAACTGAAAAGTTGTTATGACTTGTCATAAGACACTTTGGATGGGTTGAAGTTCTGCACGTAGAAGCAAAAGGC [C26G G34A]	0.357
GAGACCGCAACTGAAAAGTTGTTATGACTTGTCGTAAGACACTTGGGATGGGTTGAAGTTCTGCACGTAGAAGCAAAAGGC [C26G T45G]	0.0236
GAGACCGCAACTGAAAAGTTGTTATGACTTGTCGTAAGACACTTCGGATGGGTTGAAGTTCTGCACGTAGAAGCAAAAGGC [C26G T45C]	0.00783
GAGACCGCAACTGAAAAGTTGTTATGACTTGTCGTAAGACACTTAGGATGGGTTGAAGTTCTGCACGTAGAAGCAAAAGGC [C26G T45A]	0.0653
GAGACCGCAACTGAAAAGTTGTTATGACTTGTCGTAACACACTTTGGATGGGTTGAAGTTCTGCACGTAGAAGCAAAAGGC [C26G G38C]	0.00552
GAGACCGCAACTGAAAAGTTGTTATGACTTGTCGTAATACACTTTGGATGGGTTGAAGTTCTGCACGTAGAAGCAAAAGGC [C26G G38T]	0.0811
GAGACCGCAACTGAAAAGTTGTTATGACTTGTCGTAAAACACTTTGGATGGGTTGAAGTTCTGCACGTAGAAGCAAAAGGC [C26G G38A]	0.446
GAGACCGCAACTGAAAAGTTGTTATGACTTGTCGTAAGACACGTTGGATGGGTTGAAGTTCTGCACGTAGAAGCAAAAGGC [C26G T43G]	0.479
GAGACCGCAACTGAAAAGTTGTTATGACTTGTCGTAAGACACCTTGGATGGGTTGAAGTTCTGCACGTAGAAGCAAAAGGC [C26G T43C]	0.689
GAGACCGCAACTGAAAAGTTGTTATGACTTGTCGTAAGACACATTGGATGGGTTGAAGTTCTGCACGTAGAAGCAAAAGGC [C26G T43A]	0.783
GAGACCGCAACTGAAAAGTTGTTATTACTTGTCGTAAGCCACTTTGGATGGGTTGAAGTTCTGCACGTAGAAGCAAAAGGC [C26T A39C]	0.789
GAGACCGCAACTGAAAAGTTGTTATTACTTGTCGTAAGGCACTTTGGATGGGTTGAAGTTCTGCACGTAGAAGCAAAAGGC [C26T A39G]	0.819
GAGACCGCAACTGAAAAGTTGTTATTACTTGTCGTGAGACACTTTGGATGGGTTGAAGTTCTGCACGTAGAAGCAAAAGGC [C26T A36G]	0.828
GAGACCGCAACTGAAAAGTTGTTATTACTTGTCGTTAGACACTTTGGATGGGTTGAAGTTCTGCACGTAGAAGCAAAAGGC [C26T A36T]	0.827
GAGACCGCAACTGAAAAGTTGTTATTACTTGTCGTCAGACACTTTGGATGGGTTGAAGTTCTGCACGTAGAAGCAAAAGGC [C26T A36C]	0.788
GAGACCGCAACTGAAAAGTTGTTATGACTTGTCGCAAGACACTTTGGATGGGTTGAAGTTCTGCACGTAGAAGCAAAAGGC [C26G T35C]	0.772

Variant	fraction ligated
GAGACCGCAACTGAAAAGTTGTTATGACTTGTCGAAAGACACTTTGGATGGGTTGAAGTTCTGCACGTAGAAGCAAAAGGC [C26G T35A]	0.79
GAGACCGCAACTGAAAAGTTGTTATGACTTGTCGGAAGACACTTTGGATGGGTTGAAGTTCTGCACGTAGAAGCAAAAGGC [C26G T35G]	0.784
GAGACCGCAACTGAAAAGTTGTTATTTCTTGTCGTAAGACACTTTGGATGGGTTGAAGTTCTGCACGTAGAAGCAAAAGGC [C26T A27T]	0.808
GAGACCGCAACTGAAAAGTTGTTATTGCTTGTCGTAAGACACTTTGGATGGGTTGAAGTTCTGCACGTAGAAGCAAAAGGC [C26T A27G]	0.771
GAGACCGCAACTGAAAAGTTGTTATTCCTTGTCGTAAGACACTTTGGATGGGTTGAAGTTCTGCACGTAGAAGCAAAAGGC [C26T A27C]	0.811
GAGACCGCAACTGAAAAGTTGTTATGACATGTCGTAAGACACTTTGGATGGGTTGAAGTTCTGCACGTAGAAGCAAAAGGC [C26G T29A]	0.789
GAGACCGCAACTGAAAAGTTGTTATGACGTGTCGTAAGACACTTTGGATGGGTTGAAGTTCTGCACGTAGAAGCAAAAGGC [C26G T29G]	0.778
GAGACCGCAACTGAAAAGTTGTTATGACCTGTCGTAAGACACTTTGGATGGGTTGAAGTTCTGCACGTAGAAGCAAAAGGC [C26G T29C]	0.749
GAGACCGCAACTGAAAAGTTGTTATGACTTGTCGTAAGACACTTTGCATGGGTTGAAGTTCTGCACGTAGAAGCAAAAGGC [C26G G47C]	0.404
GAGACCGCAACTGAAAAGTTGTTATGACTTGTCGTAAGACACTTTGTATGGGTTGAAGTTCTGCACGTAGAAGCAAAAGGC [C26G G47T]	0.159
GAGACCGCAACTGAAAAGTTGTTATGACTTGTCGTAAGACACTTTGAATGGGTTGAAGTTCTGCACGTAGAAGCAAAAGGC [C26G G47A]	0.8
GAGACCGCAACTGAAAAGTTGTTATGACTTGTCGTAAGACACTTTGGATTGGTTGAAGTTCTGCACGTAGAAGCAAAAGGC [C26G G50T]	0.0691
GAGACCGCAACTGAAAAGTTGTTATGACTTGTCGTAAGACACTTTGGATAGGTTGAAGTTCTGCACGTAGAAGCAAAAGGC [C26G G50A]	0.0221
GAGACCGCAACTGAAAAGTTGTTATGACTTGTCGTAAGACACTTTGGATCGGTTGAAGTTCTGCACGTAGAAGCAAAAGGC [C26G G50C]	0.0252
GAGACCGCAACTGAAAAGTTGTTATGACTTGTCGTAAGACAGTTTGGATGGGTTGAAGTTCTGCACGTAGAAGCAAAAGGC [C26G C42G]	0.7
GAGACCGCAACTGAAAAGTTGTTATGACTTGTCGTAAGACAATTTGGATGGGTTGAAGTTCTGCACGTAGAAGCAAAAGGC [C26G C42A]	0.767
GAGACCGCAACTGAAAAGTTGTTATGACTTGTCGTAAGACATTTTGGATGGGTTGAAGTTCTGCACGTAGAAGCAAAAGGC [C26G C42T]	0.76
